According to patent publication US20120156198A1 (Hoffmann-La Roche, published 2012):
Where “and” joins values, the source holds several entries; their conditions need not be identical. Identical values can stand only once.

T1: human IL-18Rα (IL-18R1) on human cells (KG-1 cells, PBMC, TH1-cultured T cells, whole blood) (human, UniProt Q13478 19-541)
T1 sequence: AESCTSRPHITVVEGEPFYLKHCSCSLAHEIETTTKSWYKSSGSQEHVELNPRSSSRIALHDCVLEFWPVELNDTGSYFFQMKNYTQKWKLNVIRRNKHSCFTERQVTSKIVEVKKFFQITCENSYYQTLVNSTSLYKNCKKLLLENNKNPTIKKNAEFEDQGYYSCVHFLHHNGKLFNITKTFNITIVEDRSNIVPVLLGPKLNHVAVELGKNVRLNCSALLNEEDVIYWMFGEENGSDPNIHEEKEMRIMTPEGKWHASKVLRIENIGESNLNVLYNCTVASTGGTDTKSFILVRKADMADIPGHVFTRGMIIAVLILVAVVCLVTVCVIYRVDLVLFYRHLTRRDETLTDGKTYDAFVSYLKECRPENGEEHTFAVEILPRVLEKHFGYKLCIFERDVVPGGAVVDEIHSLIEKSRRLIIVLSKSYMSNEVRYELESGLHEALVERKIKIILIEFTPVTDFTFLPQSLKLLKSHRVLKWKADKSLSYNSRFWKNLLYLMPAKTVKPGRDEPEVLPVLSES

T2: human IL-18Rα/IL-18Rβ on transfected HEK293 cells (human, UniProt O95256 20-599)
T2 construct: whole, on cells; also called human IL-18Ralpha+IL-18Rβ subunits
T2 sequence 1: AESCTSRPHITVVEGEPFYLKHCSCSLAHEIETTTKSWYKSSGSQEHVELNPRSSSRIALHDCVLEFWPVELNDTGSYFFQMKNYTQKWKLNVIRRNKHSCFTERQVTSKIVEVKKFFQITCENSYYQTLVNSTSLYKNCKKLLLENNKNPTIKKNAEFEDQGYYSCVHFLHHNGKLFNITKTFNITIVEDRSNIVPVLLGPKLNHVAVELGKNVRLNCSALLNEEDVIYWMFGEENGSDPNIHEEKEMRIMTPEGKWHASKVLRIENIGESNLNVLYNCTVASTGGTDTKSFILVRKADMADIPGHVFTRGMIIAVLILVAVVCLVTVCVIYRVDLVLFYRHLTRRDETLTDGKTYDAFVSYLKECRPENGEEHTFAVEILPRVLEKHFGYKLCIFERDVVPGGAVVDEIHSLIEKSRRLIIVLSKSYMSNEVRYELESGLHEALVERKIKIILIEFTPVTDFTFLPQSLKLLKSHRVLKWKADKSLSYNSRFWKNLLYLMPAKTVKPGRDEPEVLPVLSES
T2 sequence 2: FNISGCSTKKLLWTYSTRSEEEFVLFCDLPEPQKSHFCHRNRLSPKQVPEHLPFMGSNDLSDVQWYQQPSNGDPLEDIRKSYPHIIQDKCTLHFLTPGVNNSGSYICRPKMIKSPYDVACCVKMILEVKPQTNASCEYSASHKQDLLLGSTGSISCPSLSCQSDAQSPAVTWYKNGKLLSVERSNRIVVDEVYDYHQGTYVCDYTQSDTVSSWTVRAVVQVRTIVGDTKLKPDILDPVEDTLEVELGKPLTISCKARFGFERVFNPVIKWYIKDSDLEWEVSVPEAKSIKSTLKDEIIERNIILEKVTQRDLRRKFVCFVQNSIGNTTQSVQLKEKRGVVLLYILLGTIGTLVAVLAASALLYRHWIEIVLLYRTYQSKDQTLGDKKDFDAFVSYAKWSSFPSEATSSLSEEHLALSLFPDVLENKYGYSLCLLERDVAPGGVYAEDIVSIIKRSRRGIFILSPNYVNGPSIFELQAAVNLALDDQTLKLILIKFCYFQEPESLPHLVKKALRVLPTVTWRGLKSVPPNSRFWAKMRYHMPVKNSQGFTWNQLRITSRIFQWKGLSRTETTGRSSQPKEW

T3: recombinant human IL-18Rα Fc chimera (R&D Systems, Cat. No. 816-LR) (human, UniProt Q13478 19-329)
T3 construct: Bought protein; also called hIL-18Rα (hFc-chimera R&D-Systems 816-LR); recombinant human IL-18Rα-Fc fusion protein; not shown: human Fc of the commercial chimera
T3 sequence: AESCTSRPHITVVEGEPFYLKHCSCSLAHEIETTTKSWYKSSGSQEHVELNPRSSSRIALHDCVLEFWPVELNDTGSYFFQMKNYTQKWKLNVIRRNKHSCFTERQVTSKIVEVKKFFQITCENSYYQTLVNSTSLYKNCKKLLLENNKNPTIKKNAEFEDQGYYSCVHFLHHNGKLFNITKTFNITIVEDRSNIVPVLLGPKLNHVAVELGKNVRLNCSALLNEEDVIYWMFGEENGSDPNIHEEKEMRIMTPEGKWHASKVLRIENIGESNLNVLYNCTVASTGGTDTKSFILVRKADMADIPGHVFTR


Tests used:
[1] = target: T1, human IL-18Rα (IL-18R1) on human cells …; assay: cell-based or functional assay
[2] = target: T2, human IL-18Rα/IL-18Rβ on transfected …; assay: FACS on transfected HEK293 cells, antibody 1 µg/ml
Method: 10⁶ HEK293 cells were transfected with a plasmid expressing human IL-18Ralpha+IL-18Rβ. Transfected cells were incubated for 1 day. 1×10⁵ cells were incubated on ice in PBS-buffer+2% FCS and stained with an IL-18Rα antibody (1 μg/ml). As secondary antibody anti-mouse IgG1-PE from R&D Systems (F0102B) was added in 1:20 dilution and as isotype control mouse IgG1 from BD Pharmingen (557273) was used at a concentration of 1 μg/ml.

[3] = target: T3, recombinant human IL-18Rα Fc chimera …; assay: competition ELISA: inhibition of biotinylated IL-18 (+IL-18Rβ) binding to captured IL-18Rα Fc chimera
Method: The test was performed on 384 well microtiter plates at room temperature (RT). After each incubation step plates were washed 3 times with PBST (Phosphate Buffered Saline Tween®-20). At the beginning, plates were coated with 0.5 μg/ml goat anti-human IgG Fc fragment (Jackson 1 mm. Res., US, Cat. No. 109-006-170) for at least 2 hours (h). Thereafter the wells were blocked with PBS supplemented with 0.1% Tween®-20 and 2% BSA (Roche Diagnostics GmbH, DE) for 1 h. 0.2 μg/ml of recombinant human IL-18Rα Fc chimera (R&D Systems, UK, Cat. No. 816-LR) was captured for 1 h. Dilutions of purified antibodies in PBS with 0.5% BSA and 0.05% Tween®-20 were incubated with the receptor protein for 1 h. Biotinylated human IL-18 (MBL International, US, Cat. No. B003-5) and 0.2 μg/ml IL-18R13 (R&D Systems, UK, Cat. No. 118-AP) were added for an additional hour to build up the trimeric complex. IL-18 was biotinylated with Sulfo-NHS-LC-Biotin (Thermo Scientific Pierce, US, Cat. No. 21327) according to the manufacturer's protocol and purified using Zeba™ Desalt Spin Column (Thermo Scientific Pierce, US, Cat. No. 89889). Binding of the biotinylated IL-18 to the complex was detected with 1:2000 diluted streptavidin HRP (Roche Diagnostics GmbH, DE, Cat. No. 11089153001). […] Absorbance was measured at 370 nm. […]

| IL-18 induced IFNγ production by human KG-1 cells, IC50 [pM] [1] [pM] | binding result [2] | IC50 [3] | Binder |
| --- | --- | --- | --- |
| 27 | binds | 0.022 µg/mL and 0.15 nM | Mab 1G12 (antibody, V domains shown, Monoclonal antibody from immunized NMRI mice; detected with anti-mouse IgG1-PE / anti-mouse IgG; also called F20.1G12; monoclonal antibody 1G12) VH: QVQLQQPGAELVKPGASVRMSCKTSDYTFTSNWMHWVKQRPGQGLEWIGTIDPSDSYTYYNQKFKGRATLTVDTSSSTAYMQLSSLTSEDSAVYYCTTSGDYDADRYFDVWGAGTTVTVSS VL: DIVLTQSPASLGVSLGQRATISCRASKSVSTSGDSYMHWYQQKPGQSPKLLIYLASNLESGVPARFSGSGSGTDFTLNIHPVEEEDAATYYCQQSRELPLSFGAGTKLELK |
| 43 | binds | 0.029 µg/mL and 0.19 nM | Mab 2D11 (antibody, V domains shown, Monoclonal antibody from immunized NMRI mice; detected with anti-mouse IgG1-PE / anti-mouse IgG; also called F20.2D11) VH: QVQLQQPGAELVKPGASVKMSCKASDYTFTSNWMHWVKQRPGQGLEWIGTIDPSDSYTYYNQKFKGKATLTVDTSSSTAYMHLSSLTSEDSAVYYCTTSGDYDADRYFDVWGAGTTVTVSS VL: DIVLTQSPASLGVSLGQRATISCRASKSVSTSGDSYMHWYQQKPGQSPKLLIYLASNLESGVPARFSGSGSGTDFTLNIHPVEEEDAATYYCQQSRELPLSFGAGTKLELK |
